Measurements as given in article PMC8866119 (Nature, 2021).
Changes are numbered by the printed parent chain.

B1: BD-804 (antibody, V domains shown)
VH: EVQLVESGGGLVKPGGSLRLSCAASGFTFSNYDMNWVRQAPGKGLEWVSSISSSSTYTHYADSVKGRFTISRDNAKNSLYLQMNSLRAEDTAVYYCARDRAYRLGELSSLWGDDAFDIWGQGTMVTVSS
VL: AVWMTQSPSLLSASTGDRVTVSCRMSQDISSYLAWYQQKPGKAPELLIYAAFTLQSGVPSRFSGSGSGTEFTLTISSLQSEDFATYYCQQYYSFPHTFGQGTKLERR
B2: BD55-1706 (antibody, V domains shown)
VH: QVQLQESGPGLLKPSETLSLTCTVSGGSINSYYWNWIRQSPRKGLEWIGYIFFSGSTNYNPSLKSRVTISLDRSKNQFSVHLRSVTAADTAVYYCARGDSKTGYDLELFDYWGHGTLVTVSS
VL: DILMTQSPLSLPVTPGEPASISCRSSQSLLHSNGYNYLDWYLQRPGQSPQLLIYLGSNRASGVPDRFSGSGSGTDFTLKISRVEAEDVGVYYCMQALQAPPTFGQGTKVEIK
B3: BD-614 (antibody, V domains shown)
VH: QVQLVESGGGLVQPGGSLRLSCAASGLIVSSNYMSWVRQAPGEGLEWVSVIYSGGSTYYADSVKGRFTISRDTSKNTLYLQMNSLRAEDTAVYYCARARIYTYGPDYWGQGTLVTVSS
VL: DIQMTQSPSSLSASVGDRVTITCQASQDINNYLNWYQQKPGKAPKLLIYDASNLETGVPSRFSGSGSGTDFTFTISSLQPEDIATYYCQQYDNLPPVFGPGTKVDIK
B4: S2E12 (antibody, V domains shown)
VH: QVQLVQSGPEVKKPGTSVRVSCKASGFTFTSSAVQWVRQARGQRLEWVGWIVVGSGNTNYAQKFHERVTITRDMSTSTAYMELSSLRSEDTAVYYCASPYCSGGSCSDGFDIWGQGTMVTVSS
VL: DIVLTQTPGTLSLSPGERATLSCRASQSVSSSYLAWYQQKPGQAPRLLIYGASSRATGIPDRFSGSGSGTDFTLTISRLEPEDFAVYYCQQYVGLTGWTFGQGTKVEIK
B5: BD-932 (antibody, V domains shown)
VH: EVQLVESGGALVHPGRSLRLSCTASGFTFEDYAMHWVRQAPGKGLEWVSGVSWNSGTIGYADSVKGRFIISRDNAKNSLYLQMLSLRVEDTAFYYCAKHGGLLDTSLDQYYFDYWGQGTLVTVSS
VL: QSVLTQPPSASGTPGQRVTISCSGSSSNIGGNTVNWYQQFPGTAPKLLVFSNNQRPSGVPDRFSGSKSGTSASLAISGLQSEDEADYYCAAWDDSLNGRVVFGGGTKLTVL
B6: BD-836 (antibody, V domains shown)
VH: QVQLVQSGPEVKKPGTSVRVSCKASGFTFSTSAVQWVRQARGQRLEWIGWIAVGSGKTDYLQKFQERVTMTRDESTNTAYMQLSSLRSEDTAVYYCAAPHCSGGTCYDGFDIWGQGTLVTVSS
VL: EIVLTQSPGTLSLSPGERATLSCRASQSVRSGYFAWYQQRPGRAPRLLIYGASSRATAIPDRFSGSGSGTDFTLTINRLEPEDFAVYYCQQYGTSPWTFGQGTKVEIK
B7: BD-566 (antibody, V domains shown)
VH: QVQLVESGGGVVQPGRSLRLSCAASGFTFRSYGMHWVRQAPGKGLEWVAVISKDGSNKYYADSVKGRFTISRDNSKNTLYLQWNSLRAEDTAVYYCARALVVPGAPRYYYYGMDVWGQGTTVTVSS
VL: AIQLTQSPSSLSASVGDRVTITCRASQGISSALAWYQQRPGKAPKLLIYDASTLESGVPSRFSGSGSGTDFTLTISSLQPEDFATYYCQQFNTYPWTFGQGTKVELK
B8: BD55-5293 (antibody, V domains shown)
VH: EVQLVQSGAEVKKPGESLKISCKTSGYSFISNWIGWVRQMPGKGLEWMGIIYPGDSDTRYSPSFQGQVTISVDKSISTAYLQWTSLKASDTAMYFCTRRGDYGEFGGFDGDWGQGTLVTVTS
VL: DIQMTQSSSSLSASVGDRVTITCRASQSTGRYLNWYQQKAGKAPKLVIYAVSSLQSGVPSRFSGSGSGTEFTLTINSLQPEDFATYYCQQTYSIPFTFGPGTKVDLK
B9: BD55-5386 (antibody, V domains shown)
VH: QVQLLQSGAEVKKPGSSVTVSCKASGGTFTNSAINWVRQAPGQGLEWIGGIIPIIGPTSYAQKFQGRVTITADESSTTAYLDLRSLRSDDTAVYYCAKAHCGDCTPPRGYYFYYFGMDVWGQGTTVTVSS
VL: SYELTQPPSVSVSPGQTARITCSGDALPKQYSYWYQQRPGQAPVLLIYKDNERPSGIPERFSGSSSGTTVTLTISGVQAEDEADYYCQSADASSTYVVFGGGTKLTVL
B10: BD-369 (antibody, V domains shown)
VH: EVQLVESGGGLVQPGGSLRLSCAASGITVSSNYMTWVRQAPGKGLEWVSLIYSGGSTYYADSVKGRFTISRDNSKNTLHLQMNSLRGEDTAVYYCARDLVAFGMDVWGQGTTVTVSS
VL: AIQLTQSPSSLSASVGDRVTITCRASQGISSYLAWYQQKPGKAPKLLIYAASTLQGGVPSRFSGSGSGTDFTLTISSLQSEDSATYYCQQLNSDTPTFGPGTKVEIK
B11: BG4-25 (antibody, V domains shown)
VH: EVQLVESGGGLIQPGGSLRLSCAASGITVVRNYMTWVRQAPGKGLEWVSVIYSGGTTYYADSVKGRFTISRDNSKNTMYLQMNSLRAEDTAIYYCARDLEVVGAMDVWGQGTTVTVSS
VL: EIVLTQSPGTLSLSPGERATLSCRASQSVPSSYLAWYQQKPGQAPRLLIYGASSRATGIPDRFSGSGSGTDFTLTISRLEPEDFAVYYCQQYGSPMYTFGQGTKLEIK
B12: BD55-1962 (antibody, V domains shown)
VH: QVQLVQSGAEVKKPGSSVKVSCTASGDSFSSYAITWVRQAPGQGLEWMGRIIPILGIANYAQKFQGRVTLTADKSAGTAYMELSSLRSDDTAVYYCASGYDFHFDYWGQGTLVTVYS
VL: QSALTQPASVSGSPGQSITISCTGTSSDVGDYKYVSWYQQHAGKAPKLMIHDVSKRPSGVSSRFSGSKSGNTASLTISGLQAEDEADYYCSSYTSSSSWVFGGGTKLTVL
B13: BD55-3152 (antibody, V domains shown)
VH: QVQLVQSGAEVKKPGASVIVSCKASGYRFISHYIHWVRQAPGQGLEWMGKIDPSGRGTTYAQKLQGRVSVTRDTSTSSVYMALSGLRSDDTAVYYCARDRFPLSDPYVWGSPLGGLDVWGQGTTVIVSS
VL: SYDLTQPPSVSVSPGQTARITCSGDALPSQYVYWYQQRPGQAPVLVMYKDSERPPGIPERFSGSTSGTTATLTITGVQAEDEADYYCQSADASTTYHVFGGGTKVTVV
B14: BD55-387 (antibody, V domains shown)
VH: QITLKESGPTLVKPTQTLTLTCTFSGFSLSTSGVGVGWIRQPPGKALEWLALIYWDDDKRYSPALKSRLTITEDTSKNQVVLTMTNMDPVDTATYYCAHCAPAWNYFDYWGQGTLVAVSS
VL: QSVLTQPPSVSGAPGQRVTISCTGSSSNIGAGYDVHWYQQLPGTAPKLLIYRNSNRPSGVPGRFSGSKSGTSASLAITGLQAEDEADYFCQSYDSSLSGWVFGGGTKLTVL
B15: BD-744 (antibody, V domains shown)
VH: EVQLVESGGGLVQPGRSLRLSCAASGFTFDDYAMHWVRQAPGKGLEWVSGASWNSGTIGYADSVKGRFIIIRDNAKNSLYLQMNSLRSEDTASYYCAKDFSRDGDAFDIWGQGTMVTVSS
VL: SYVLPQPPSVSVAPGKTARITCGGNNIEHKSVHWYQQKPRQAPVVVMYYDSDRPSGIPERFSGSNSGNTATLIISRVEAGDEAEYYCQVWDRSSDQPVFGGGTKLTVL
B16: BD55-1104 (antibody, V domains shown)
VH: EVQLVQSGAEVKKPGESLKISCKGSGYSFTTYWTGWVRQVPGKGLEWMGLIYPRDSDARYTPSFEGHVTISADNSINTAYLHWSSLKASDTAIYYCVSAGDTGWRGHADYWGQGTLVTVSS
VL: DIQMTQSPSSLSASVGDRVTITCRASLDIRNYLVWFQQKPGTAPKSLIYEASTLQSGVPSRFSGSGSGTDFTLTISSLRPEDFATYYCQQYNTWPFTFGGGTKVEIK
B17: COV2-2072 (antibody, V domains shown)
VH: QMQLVQSGPEVKKPGTSVKVSCKTSGFTFTSSAIQWVRQARGQRLEWIGWIVVGSGNTNYAQKFQERVTITRDMSTSTAYMELSSLRSEDTAVYYCAAPHCNRTSCYDAFDLWGQGTMVTVSS
VL: not shown
B18: COV2-2381 (antibody, V domains shown)
VH: B17 VH with T24A, I34V, V52A, T69S, H100Y, N102S, Y107H, L112I, M118K
VL: EVVLTQSPGTLSLSPGERATLSCRASQSVSSSYLAWYQQKPGQAPRLLIYGASSRATGIPDRFSGSGSGTDFTLTISRLEPEDFAVYHCQHFGSSSQWTFGQGTKVEIK
B19: BD-618 (antibody, V domains shown)
VH: EVQLVESGGGLVQPGGSLRLSCAVSGFIVSRNYMTWVRQAPGKGLEWVSLIYSGGSTFYTNSVKGRFTISRDNSKNTLYLQMDSLRAEDTAVYYCARGPYPRFDYWGQGTLVTVSS
VL: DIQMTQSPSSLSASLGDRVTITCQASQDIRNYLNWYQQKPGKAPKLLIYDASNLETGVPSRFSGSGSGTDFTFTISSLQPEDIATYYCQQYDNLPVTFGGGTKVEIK
B20: BD55-3637 (antibody, V domains shown)
VH: QVQLVESGGGVVQPGRSLRLSCAASGFTFSTYGMHWVRQAPGKGLQWVAFISDGGNKKYFADSVKGRFTISRDNSKNTLYLQMSSLRTEDTAVYYCAKERYCAGGDCSNPFFDYWGQGTLVTVSS
VL: DIQVTQSPSSLSASVGDRVTITCRASQSISSSLNWYQHKPGNAPKLLIYAASSLQSGVPSRFSGSGSGTDFILTISSLQPEDFATYYCQQSHSFPRTFGQGTKVEFR
B21: BD-914 (antibody, V domains shown)
VH: QVQLVQSGAEVTKPGSSVKVSCKTSGDTFSLYPISWVRQAPGQGLEWMGRIIPIVGIADYAQKFQGRVTITADKSTSTAYMELSSLRSEDTAIYYCARDGNQYYYDSGGDYYVNYWGQGTLITVSS
VL: DIQMTQSPSSLSASVGDRVTITCQASQDIRKDLNWYRQRPGKAPKLLIYDASNLETGVPSRFSGSGSGTHFTFTISGLQPEDVATYYCQQYDNVPVTFGPGTKVDIR
B22: COVOX-222 (antibody, V domains shown)
VH: EVQLVESGGGLIQPGGSLRLSCAASGLTVSSNYMSWVRQAPGKGLEWVSVIYSGGSTFYADSVKGRFTISRDNSKNTLYLQMNSLGAEDTAVYYCARGEGSPGNWFDPWGQGTLVTVSS
VL: DVVMTQSPGTLSLSPGERATLSCRASQSVPSSYLAWYQQKPGQAPRLLIYGASTRATGIPDRFSGSGSGTDFTLTISRLEPEDFAVYYCQHYDTSPRFGGGTKVDIK
B23: LY-CoV1404 (antibody, V domains shown)
VH: QITLKESGPTLVKPTQTLTLTCTFSGFSLSISGVGVGWLRQPPGKALEWLALIYWDDDKRYSPSLKSRLTISKDTSKNQVVLKMTNIDPVDTATYYCAHHSISTIFDHWGQGTLVTVSS
VL: QSALTQPASVSGSPGQSITISCTATSSDVGDYNYVSWYQQHPGKAPKLMIFEVSDRPSGISNRFSGSKSGNTASLTISGLQAEDEADYYCSSYTTSSAVFGGGTKLTVL
B24: BD-812 (antibody, V domains shown)
VH: EVQLVQSGAEVKKPGESLKISCQFSEYKLISFWIAWVRQRPGKGLEWMGIIYPDDSDTKYSPSSQGQVTISADKSIRTAYLQWSSLMASDTAMYYCTSGSYYGTLDFWGQGTLVTVSS
VL: DIEITQSPSSLSASVGDRVTISCRASQDIRTYVAWYQQRPGKVPRLLIYAASTLQSGVPSRFSGRGSGTDFTLTISSLQPEDVATYYCQQYNSAPLTFGGGAKVEIK

What follows are binders tested against SARS-CoV-2 Omicron (B.1.1.529) RBD (SARS-CoV-2 Omicron B.1.1.529 (BA.1), strain).
B1: binds.
B2: binds.
B3: binds.
B4: binds.
B5: binds.
B6: binds.
B7: binds.
B8: binds.
B9: binds.
B10: binds.
B11: binds.
B12: binds.
B13: binds.
B14: binds.
B15: binds.
B16: binds.
B17: binds.
B18: binds.
B19: binds.
B20: binds.
B21: binds.
B22: binds.
B23: binds.
B24: binds.
